Results: patent publication US20260001927A1

Target: IL-10 receptors IL-10RA and IL-10RB engineered into U2OS osteosarcoma cells (UniProt Q13651)
Test: cell-based or functional assay

EC50, luminescence from ligand-induced IL-10RA/IL-10RB receptor dimerization in engineered U2OS cells: 0.0915 nM
Substance: recombinant human IL-10 (rhIL-10) (from UniProt P22301 19-178) (ligand)
